Molecular target: T1, soluble mesothelin (human, UniProt Q13421)
T1 chain: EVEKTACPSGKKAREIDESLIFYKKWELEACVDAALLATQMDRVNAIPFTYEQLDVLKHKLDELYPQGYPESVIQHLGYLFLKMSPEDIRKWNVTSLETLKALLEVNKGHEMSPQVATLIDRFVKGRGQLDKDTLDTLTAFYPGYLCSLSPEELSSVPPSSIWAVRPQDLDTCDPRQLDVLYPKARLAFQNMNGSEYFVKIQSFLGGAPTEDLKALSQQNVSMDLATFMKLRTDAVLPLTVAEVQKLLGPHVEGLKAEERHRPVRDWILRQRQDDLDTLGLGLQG
Test: ELISA

- binding result: no binding
B1: Gly1-2-H4 (antibody, V domains shown)
VH: QVQLVQSGAEVKKPGSSVKVSCKSSGGTFSSDTINWVRQAPGQGLEWMGWINPNSGGTNYAQKFQGWVTMTRDTSISTAYMELSRLRSDDTAVYYCARESALGGSYPLSFWGQGTLVTVSS
VL: ETTLTQSPGTLSLSPGERATLSCRASQSVSSSYLAWYQQKPGQAPRLLIYGASSRATGIPDRFSGSGSGTDFTLTISRLEPEDSATYYCLQDDSYPLTFGQGTKVEIK

— patent US20260337263 (published 2026)
